Experimental findings from paper PMC5758902 are described below.

Data set [1] deals with T1, NgoS (MutS) (Neisseria gonorrhoeae, UniProt Q5F5J4 1-814).
T1 sequence: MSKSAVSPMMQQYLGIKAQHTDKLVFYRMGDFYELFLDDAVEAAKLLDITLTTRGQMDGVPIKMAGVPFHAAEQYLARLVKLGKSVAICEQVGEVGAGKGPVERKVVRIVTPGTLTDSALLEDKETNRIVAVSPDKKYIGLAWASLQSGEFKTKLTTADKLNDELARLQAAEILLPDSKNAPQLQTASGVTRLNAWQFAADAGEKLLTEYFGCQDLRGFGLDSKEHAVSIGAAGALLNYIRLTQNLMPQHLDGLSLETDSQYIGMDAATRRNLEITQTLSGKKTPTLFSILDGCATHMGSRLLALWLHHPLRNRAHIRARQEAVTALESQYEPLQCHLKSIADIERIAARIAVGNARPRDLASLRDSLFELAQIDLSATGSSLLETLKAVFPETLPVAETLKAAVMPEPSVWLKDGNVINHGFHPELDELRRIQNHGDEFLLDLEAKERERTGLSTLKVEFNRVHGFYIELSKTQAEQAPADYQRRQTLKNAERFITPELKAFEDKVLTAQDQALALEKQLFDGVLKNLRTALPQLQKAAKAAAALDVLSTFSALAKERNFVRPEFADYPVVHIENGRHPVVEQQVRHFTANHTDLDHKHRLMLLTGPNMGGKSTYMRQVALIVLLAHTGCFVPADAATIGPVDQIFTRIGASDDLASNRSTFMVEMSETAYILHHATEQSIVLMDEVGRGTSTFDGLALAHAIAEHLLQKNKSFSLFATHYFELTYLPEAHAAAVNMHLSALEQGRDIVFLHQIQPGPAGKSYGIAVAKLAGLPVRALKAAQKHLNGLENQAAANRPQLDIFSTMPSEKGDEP
The data set is described as follows: DLS.

The next data set has as its target T2, NgoS E687A (Neisseria gonorrhoeae, UniProt Q5F5J4 1-814, E687A).
T2 sequence: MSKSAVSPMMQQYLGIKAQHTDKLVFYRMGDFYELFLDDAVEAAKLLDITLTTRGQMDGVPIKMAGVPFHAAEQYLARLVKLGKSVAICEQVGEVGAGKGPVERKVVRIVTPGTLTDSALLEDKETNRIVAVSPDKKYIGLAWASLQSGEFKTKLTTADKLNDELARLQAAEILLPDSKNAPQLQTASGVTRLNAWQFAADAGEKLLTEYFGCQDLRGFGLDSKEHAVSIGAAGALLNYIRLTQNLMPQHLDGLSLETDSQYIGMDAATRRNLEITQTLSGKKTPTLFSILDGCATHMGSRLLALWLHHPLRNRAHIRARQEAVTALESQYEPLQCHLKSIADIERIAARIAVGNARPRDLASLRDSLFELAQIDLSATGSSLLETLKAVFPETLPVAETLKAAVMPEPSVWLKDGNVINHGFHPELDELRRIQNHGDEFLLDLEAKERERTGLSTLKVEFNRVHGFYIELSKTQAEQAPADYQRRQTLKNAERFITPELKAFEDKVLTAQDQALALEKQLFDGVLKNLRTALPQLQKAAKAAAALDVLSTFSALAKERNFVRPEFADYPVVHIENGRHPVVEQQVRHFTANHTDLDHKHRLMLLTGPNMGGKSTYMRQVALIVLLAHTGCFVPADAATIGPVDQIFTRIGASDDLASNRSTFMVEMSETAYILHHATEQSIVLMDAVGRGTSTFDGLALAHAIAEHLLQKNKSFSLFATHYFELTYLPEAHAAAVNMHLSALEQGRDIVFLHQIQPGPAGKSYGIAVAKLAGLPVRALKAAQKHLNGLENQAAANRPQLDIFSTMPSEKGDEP
Kind of data set: fluorescence anisotropy. A general note: Fluorescence polarisation rises when a labelled molecule tumbles more slowly, as on binding a larger partner.

Data set [2] has as its target T1, NgoS (MutS). Kind of data set: fluorescence anisotropy.

B1: 30mer G:T heteroduplex (dsDNA)
DNA 1: AGCTGCCAGGCACCAGTGTCAGCGTCCTAT
DNA 2: ATAGGACGCTGACACTGGTGCTTGGCAGCT
With B1, in the data set with NgoS (MutS) [1], the binding result is listed as “binds”.

B2: 30mer homoduplex (dsDNA)
DNA 1: AGCTGCCAGGCACCAGTGTCAGCGTCCTAT
DNA 2: ATAGGACGCTGACACTGGTGCCTGGCAGCT
Take B2: in the data set with NgoS (MutS) [1], the binding result was “binds”.

B3: 31mer G:T heteroduplex (dsDNA)
DNA 1: GCGATGTTGCTGACGCTGGTGCCTGGCAGCT
DNA 2: AGCTGCCAGGCACCAGTGTCAGCAACATCGC
Consider B3, for which the binding result in the data set with NgoS E687A and with NgoS (MutS) [2] was “binds” each time.
